Experimental data from patent US20150344580A1 (MSM PROTEIN TECHNOLOGIES, published 2015).

T1: human CCR10 (human, UniProt P46092 1-362)
T1 construct: whole, on cells; CHO cells
T1 sequence (looked up): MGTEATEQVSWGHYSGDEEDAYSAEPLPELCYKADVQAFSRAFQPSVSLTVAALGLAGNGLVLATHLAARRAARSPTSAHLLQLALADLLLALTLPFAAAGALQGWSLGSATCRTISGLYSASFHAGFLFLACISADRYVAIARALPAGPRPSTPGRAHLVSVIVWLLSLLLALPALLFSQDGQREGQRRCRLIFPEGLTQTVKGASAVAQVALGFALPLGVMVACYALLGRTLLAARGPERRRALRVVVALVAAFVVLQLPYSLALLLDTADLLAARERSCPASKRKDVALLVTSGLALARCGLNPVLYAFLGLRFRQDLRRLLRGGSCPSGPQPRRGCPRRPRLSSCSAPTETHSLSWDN

T2: human CCR6 (human, UniProt P51684 1-374)
T2 construct: whole, on cells; CHO cells; also called CCR6 (human)
T2 sequence (looked up): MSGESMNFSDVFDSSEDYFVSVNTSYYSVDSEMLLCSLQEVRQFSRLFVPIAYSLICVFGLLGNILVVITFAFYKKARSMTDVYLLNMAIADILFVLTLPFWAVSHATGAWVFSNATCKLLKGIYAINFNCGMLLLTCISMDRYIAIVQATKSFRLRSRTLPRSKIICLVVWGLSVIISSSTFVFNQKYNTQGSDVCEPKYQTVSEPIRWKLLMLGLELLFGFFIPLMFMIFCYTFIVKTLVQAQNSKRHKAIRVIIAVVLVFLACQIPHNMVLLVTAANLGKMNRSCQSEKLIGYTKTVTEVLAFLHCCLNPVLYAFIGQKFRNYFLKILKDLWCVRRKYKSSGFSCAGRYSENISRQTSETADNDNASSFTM

T3: human CXCR5 (human, UniProt P32302 1-372)
T3 construct: whole, on cells; CHO cells
T3 sequence (looked up): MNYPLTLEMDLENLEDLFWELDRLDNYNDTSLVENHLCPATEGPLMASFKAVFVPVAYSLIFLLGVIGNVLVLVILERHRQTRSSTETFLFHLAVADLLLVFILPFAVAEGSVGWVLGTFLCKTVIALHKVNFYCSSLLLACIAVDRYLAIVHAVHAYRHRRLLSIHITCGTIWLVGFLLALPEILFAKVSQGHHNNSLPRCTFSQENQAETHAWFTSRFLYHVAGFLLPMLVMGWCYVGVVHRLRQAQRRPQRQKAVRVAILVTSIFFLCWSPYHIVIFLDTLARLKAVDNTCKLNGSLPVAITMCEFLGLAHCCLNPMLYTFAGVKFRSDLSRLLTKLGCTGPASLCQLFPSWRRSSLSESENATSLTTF

T4: human CXCR1 (human, UniProt P25024 1-350)
T4 construct: whole, on cells; R1610 cells
T4 sequence (looked up): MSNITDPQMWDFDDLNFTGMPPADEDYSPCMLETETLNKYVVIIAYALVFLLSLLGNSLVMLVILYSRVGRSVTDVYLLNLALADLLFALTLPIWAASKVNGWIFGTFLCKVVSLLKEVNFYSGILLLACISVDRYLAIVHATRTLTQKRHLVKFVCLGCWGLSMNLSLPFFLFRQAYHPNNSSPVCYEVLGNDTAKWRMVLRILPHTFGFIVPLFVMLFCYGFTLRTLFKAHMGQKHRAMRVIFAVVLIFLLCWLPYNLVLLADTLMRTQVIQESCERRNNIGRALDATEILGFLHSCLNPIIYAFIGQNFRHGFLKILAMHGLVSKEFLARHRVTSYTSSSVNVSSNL

T5: human CXCR2 (human, UniProt P25025 1-360)
T5 construct: whole, on cells; Cf2th cells
T5 sequence (looked up): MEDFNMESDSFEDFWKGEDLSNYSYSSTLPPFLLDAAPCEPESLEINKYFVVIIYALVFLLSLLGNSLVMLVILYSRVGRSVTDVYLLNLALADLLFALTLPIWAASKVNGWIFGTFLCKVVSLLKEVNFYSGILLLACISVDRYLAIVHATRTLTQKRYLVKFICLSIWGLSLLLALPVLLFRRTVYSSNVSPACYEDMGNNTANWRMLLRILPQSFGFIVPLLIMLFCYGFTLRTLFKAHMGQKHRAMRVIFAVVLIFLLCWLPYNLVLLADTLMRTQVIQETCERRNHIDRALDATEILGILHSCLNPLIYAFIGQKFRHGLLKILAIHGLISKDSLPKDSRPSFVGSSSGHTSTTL


What was measured:
human CCR5 = biological target: T6, human CCR5 (human, UniProt P51681 1-352); assay: FACS, CHO-human CCR5 cells
T6 construct: whole, on cells; CHO cells
T6 sequence (P51681 whole entry): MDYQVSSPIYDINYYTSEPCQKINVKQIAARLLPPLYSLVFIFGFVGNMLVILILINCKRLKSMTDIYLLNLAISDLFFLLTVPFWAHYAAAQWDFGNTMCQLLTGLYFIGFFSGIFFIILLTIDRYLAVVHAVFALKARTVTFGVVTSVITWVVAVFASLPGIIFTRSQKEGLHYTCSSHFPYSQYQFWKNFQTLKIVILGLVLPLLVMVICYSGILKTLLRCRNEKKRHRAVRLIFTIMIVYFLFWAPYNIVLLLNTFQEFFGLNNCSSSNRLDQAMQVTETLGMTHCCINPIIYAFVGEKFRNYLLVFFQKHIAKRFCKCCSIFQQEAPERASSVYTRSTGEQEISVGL
Protocol: (§1) In more details, the cell staining procedure was: […] cell suspension in 10 μl FACS buffer (1×PBS, 2.0% FBS, 0.2% sodium azide) was mixed with 10 μl of 200 nM the corresponding anti-CCR7 MAB and incubated on ice for 30 min. Washing step—after the incubation 150 μl of FACS buffer was added to the cell sample, the samples were mixed gently by up-down pipetting the cell suspension. Then the samples were centrifuged at 1100 rpm for 5 minutes, and supernatants were removed. Washing step was repeated ones. Then 10 μl of anti-human PE-(Fab)2 form Jackson Immuno Research Lab. #709-116-098 diluted 40 times in FACS buffer were added to the cells and the cells were re-suspended by up-down pipetting. After 20 min. incubation on ice in dark the washing step was repeated twice. The washed cells were mixed with 100 μl of FIX buffer (0.5% Paraformaldehyde solution in PBS). Fixed samples were stored in dark on ice and analyzed by FACS on Guava PCA-96 flow cytometer. The fluorescent signals collected from individual cells were obtained using fluorescence Activated Cell Sorter (FACS).

human CCR10 = biological target: T1, human CCR10; assay: FACS, CHO-human CCR10 cells
human CCR6 = biological target: T2, human CCR6; assay: FACS, CHO-human CCR6 cells
Protocol: as §1

human CXCR5 = biological target: T3, human CXCR5; assay: FACS, CHO-human CXCR5 cells
human CXCR1 = biological target: T4, human CXCR1; assay: FACS, R1610-human CXCR1 cells
Protocol: as §1

human CXCR2 = biological target: T5, human CXCR2; assay: FACS, Cf2th-human CXCR2 cells
Protocol: as §1

human CXCR7 = biological target: T7, human CXCR7 (human, UniProt P25106 1-362); assay: FACS, CHO-human CXCR7 cells
T7 construct: whole, on cells; CHO cells
T7 sequence (P25106 whole entry): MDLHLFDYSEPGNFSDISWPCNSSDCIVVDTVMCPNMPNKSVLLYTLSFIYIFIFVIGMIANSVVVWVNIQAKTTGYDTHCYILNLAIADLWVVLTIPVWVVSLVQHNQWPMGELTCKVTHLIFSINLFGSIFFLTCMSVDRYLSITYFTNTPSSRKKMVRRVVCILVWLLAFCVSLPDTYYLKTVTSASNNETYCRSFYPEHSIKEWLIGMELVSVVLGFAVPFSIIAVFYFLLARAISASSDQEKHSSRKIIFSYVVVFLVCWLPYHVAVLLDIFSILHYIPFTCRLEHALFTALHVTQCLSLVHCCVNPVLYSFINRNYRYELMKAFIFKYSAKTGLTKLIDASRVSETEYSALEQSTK

Binder	binding result (human CCR5)	binding result (human CCR10)	binding result (human CCR6)	binding result (human CXCR5)	binding result (human CXCR1)	binding result (human CXCR2)	binding result (human CXCR7)
MSM-R710 (fully human anti-human CCR7 antibody, IgG1) (antibody, V domains shown, IgG1 format) VH: EVQLLESGGGLVQPGGSLRLSCAASGFTFSNYTMHWVRQAPGKGLEWVSGIGPRSGRTYYADSVKGRFTISRDNSKNTLYLQMNSLRAEDTAVYYCARSYAYQYRGFDYWGQGTLVTVSS VL: EIVLTQSPGTLSLSPGERATLSCRASQSVSSSYLAWYQQKPGQAPRLLIYGASSRATGIPDRFSGSGSGTDFTLTISRLEPEDFAVYYCQSSVTFGQGTKVEIKR	no binding (tested: 200 nM MAB mixed 1:1 with cells)	no binding (tested: 200 nM MAB mixed 1:1 with cells)	no binding (tested: 200 nM MAB mixed 1:1 with cells)	no binding (tested: 200 nM MAB mixed 1:1 with cells)	no binding (tested: 200 nM MAB mixed 1:1 with cells)	no binding (tested: 200 nM MAB mixed 1:1 with cells)	no binding (tested: 200 nM MAB mixed 1:1 with cells)
MSM-R735 (fully human anti-human CCR7 antibody, IgG1) (antibody, IgG1 format; also called R735 Human IgG1) heavy: not shown light: EIVLTQSPGTLSLSPGERATLSCRASQSVSSSYLAWYQQKPGQAPRLLIYGASSRATGIPDRFSGSGSGTDFTLTISRLEPEDFAVYYCQQGSPVTFGQGTKVEIKRTVAAPSVFIFPPSDEQLKSGTASVVCLLNNFYPREAKVQWKVDNALQSGNSQESVTEQDSKDSTYSLSSTLTLSKADYEKHKVYACEVTHQGLSSPVTKSFNRGEC	no binding (tested: 200 nM MAB mixed 1:1 with cells)	no binding (tested: 200 nM MAB mixed 1:1 with cells)	no binding (tested: 200 nM MAB mixed 1:1 with cells)	no binding (tested: 200 nM MAB mixed 1:1 with cells)	no binding (tested: 200 nM MAB mixed 1:1 with cells)	no binding (tested: 200 nM MAB mixed 1:1 with cells)	no binding (tested: 200 nM MAB mixed 1:1 with cells)
